9 molecules from patent publication EP4585618A1 (Jiangsu Hengrui Pharmaceuticals Co., Ltd., dated 2025) can be followed below.

B1: chimeric antibody ChP1-B4 (antibody, human IgG4 S228P, kappa, F234A L235A, V domains shown)
VH: QVQLKQSGPGLVQPSQSLSITCTVSSFSLTNYGVHWVRQSPGKGLEWLGVIWTGGSTDYNAAFISRLSIIRDNSKSQVFFKMNSLQADDTAMYYCAITTVVTAMDYWGQGTSVTVSS
VL: DIVMTQSHKFMSTSVGDRVSITCKASQDVNIAVVWYQQKPGQSPKLLIYAASYRYTGVPDRFTGSGSGTDFTFTISSVQAEDLAVYYCQQHYSSPYTFGGGTKLEIKR
notes: Murine variable regions with hIgG4(LALA) and CL constant regions; also called M P1-B4
B2: chimeric antibody ChP2-C4 (antibody, human IgG4 S228P, kappa, F234A L235A, V domains shown)
VH: QVQLKESGPGLVAPSQSLSITCTVSGFSLSTYAIGWVRQPPGKGLEWLGVIWTGGGTSYNSALKSRLSISKDNSKSQVFLKMNSLQTDDTARYYCARGDYGPFAYWGQGTLVTVSS
VL: B1 VL with V15L, T22S, N30S, V34A, P40A, A50S, Y55H, S94T, Y96F, G100S
notes: Murine variable regions with hIgG4(LALA) and CL constant regions; also called M P2-C4
B3: chimeric antibody ChP1-F7 (antibody, human IgG4 S228P, kappa, F234A L235A, V domains shown)
VH: DVQLQESGPGLVKPSQSLSLTCSVTGYSITSGYYWNWIRQFPGNKLEWMGYISYDGNNYYNPSLKNRISVTRDTSKNQFFLKLNSVTSEDTATYYCAREDGSYSDYDGFAYWGQGTLVTVSS
VL: DIQMTQSPASLSVSVGETVTITCRANENIYSNLAWYQQKQGKSPQLLVYAATNLADGVSSRFSGSGSGTQYSLRINSLQSEDFGSYYCQQFWGTPYTFGGGTKLEIKR
notes: Murine variable regions with hIgG4(LALA) and CL constant regions; also called M P1-F7
B4: chimeric antibody ChP2-E3 (antibody, human IgG4 S228P, kappa, F234A L235A, V domains shown)
VH: EVQLQQSGPELVKPGASVKISCKASGYTFTDYYMNWVKQSHGKSLEWIGDINPNNGGTSYNQKFKGKATLTVDKSSSTAYMELRSLTSEDSTVYYCARGGVTTVVATYWYFDVWGTGTTVTVSS
VL: B3 VL with N26S, L54V, S59P, S65G, R74K, G93D, Y96F, G100S
notes: Murine variable regions with hIgG4(LALA) and CL constant regions; also called M P2-E3
B5: chimeric antibody ChP2-G9 (antibody, human IgG4 S228P, kappa, F234A L235A, V domains shown)
VH: DVQLQESGPGLVKPSQSLSLACSVTGSSITSGYYWNWIRQFPGNKLEWMGYLSYDGSNNYNPSLKNRISITRDTSKSQFFLKLNSVTPEDTATYYCAREGAHYSGTLSWFAYWGQGTLVTVSS
VL: B3 VL with N26S, S59P, R74K, Q90H, G93D
notes: Murine variable regions with hIgG4(LALA) and CL constant regions; also called M P2-G9
B6: chimeric antibody ChP1-G7 (antibody, human IgG4 S228P, kappa, F234A L235A, V domains shown)
VH: DVQLQESGPGLVKPSQSLSLTCSVTGYSITSGYYWNWIRQFPENKLEWMGYISYDGGNNYNPFLKNRISITRDTSKNQFFLNLNSVTIEDTATYYCAREGGSSWEYYGMDYWGQGTSVTVSS
VL: B3 VL with N26S, S31R, K42H, V48L, S59P, R74K, T94S
notes: Murine variable regions with hIgG4(LALA) and CL constant regions; also called M P1-G7
B7: chimeric antibody ChP2-F10 (antibody, human IgG4 S228P, kappa, F234A L235A, V domains shown)
VH: DVQLQESGPGLVKPSQSLSLTCSVTGYSIASGYYWNWIRQFPGNKLEWMGYITYDGSNNYNPSLKNRISITRDTSKNQFFLKLNSVTTEDTATYYCAREYSYGSTLSWFAYWGQGTLVTVSS
VL: B3 VL with V13I, N26S, S59P, R74K, Q90H, G93D
notes: Murine variable regions with hIgG4(LALA) and CL constant regions; also called M P2-F10
B8: humanized antibody huP1-D7 (antibody, human IgG4 S228P, kappa, F234A L235A, V domains shown)
VH: EVQLVQSGAEVKKPGASVKVSCKASGYTFTTYGMNWVRQAPGQGLEWMGWINTYSGVPTYAEDFKGRVTMTTDTSTSTAYMELRSLRSDDTAVYYCARRTDYDGYVMDSWGQGTTVTVSS
VL: DIVMTQSPDSLAVSLGERATINCKSSQSLFYSGNQKNYLAWYQQKPGQSPKLLLYWASTRESGVPDRFSGSGSGTDFTLTISSLQAEDVAVYYCQQYFSYPPTFGGGTKVEIKR
notes: Full chains; also called P1-D7H1L1
B9: humanized antibody huP1-G7 (antibody, human IgG4 S228P, kappa, F234A L235A, V domains shown)
VH: EVQLQESGPGLVKPSQTLSLTCTVSGYSITSGYYWNWIRQHPGKGLEWIGYISYDGGNNYNPFLKNRVTISRDTSKNQFSLKLSSVTAADTAVYYCAREGGSSWEYYGMDYWGQGTTVTVSS
VL: DIQMTQSPSSLSASVGDRVTITCRASENIYRNLAWYQQKPGKAPKLLLYAATNLADGVPSRFSGSGSGTDFTLTISSLQPEDFATYYCQQFWGSPYTFGGGTKVEIKR
notes: Full chains; also called P1-G7H1L1

Residue numbers refer to the chain shown, from its start.

T1 sequence (Q8N423 other isoform, or with tags, fused parts or gaps limits assumed): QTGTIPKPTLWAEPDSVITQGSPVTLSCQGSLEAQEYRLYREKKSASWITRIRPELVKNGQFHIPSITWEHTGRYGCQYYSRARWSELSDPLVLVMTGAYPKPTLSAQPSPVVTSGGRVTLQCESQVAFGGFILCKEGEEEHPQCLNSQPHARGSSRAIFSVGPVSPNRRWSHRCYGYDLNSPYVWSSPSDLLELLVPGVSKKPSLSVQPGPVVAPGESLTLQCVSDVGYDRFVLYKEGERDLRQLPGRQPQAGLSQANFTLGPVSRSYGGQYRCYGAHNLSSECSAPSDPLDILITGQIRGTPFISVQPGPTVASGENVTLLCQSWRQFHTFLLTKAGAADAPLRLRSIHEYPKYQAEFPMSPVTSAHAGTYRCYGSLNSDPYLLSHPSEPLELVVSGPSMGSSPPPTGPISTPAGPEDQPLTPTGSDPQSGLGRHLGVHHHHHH

The first experiment concerns the target T1, His-tagged ILT4 protein extracellular domain: ILT4-His (human, UniProt Q8N423 22-460).
T1 construct: Expressed in 293 cells; also called human ILT4-His protein
The experiment in a line: screening of chimeric antibodies (ILT4 protein binding, cell binding, ILT4/HLA-G blocking).
Regarding B1, the binding result is “binds”.

As to B2, the binding result is “binds”.

For the molecule B3, the binding result is on record as “binds”.

As to B4, the binding result is on record as “binds”.

Consider B5, for which the binding result was “binds”.

With B6, the binding result was “binds”.

Consider B7, for which the binding result was “binds”.

The next experiment deals with T1, His-tagged ILT4 protein extracellular …. The experiment in a line: SPR (Biacore), antibody captured on Protein A chip, ILT4-His as analyte, 1:1 model.
Take B8: the Kd was 3.98 nM, the koff is 0.0103 s⁻¹ and the on-rate constant (kon) was 2.59e+06 M⁻¹ s⁻¹.

B9: the Kd was 0.158 nM, the koff is 7.2e-05 s⁻¹ and the kon was 457000 M⁻¹ s⁻¹.

Usually Kd stands for the concentration at which binding is half-saturated. Higher therefore signals weaker binding. In general, koff refers to the first-order rate constant of dissociation. A lower koff goes with a long-lived complex. Usually kon stands for the second-order rate constant of association.
